Among the data in paper PMC9105384, “Ethyl Gallate Dual-Targeting PTPN6 and PPARγ Shows Anti-Diabetic and Anti-Obese Effects” (International Journal of Molecular Sciences, 2022) are Km values, retold here.

By Km is commonly meant the substrate concentration at which the rate is half of its maximum.

First the molecules themselves.
B1: DUSP22 (Homo sapiens) (protein)
chain: MGNGMNKILPGLYIGNFKDARDAEQLSKNKVTHILSVHDSARPMLEGVKYLCIPAADSPSQNLTRHFKESIKFIHECRLRGESCLVHCLAGVSRSVTLVIAYIMTVTDFGWEDALHTVRAGRSCANPNVGFQRQLQEFEKHEVHQYRQWLKEEYGESPLQDAEEAKNILAAPGILKFWAFLRRL
B2: PTPN18 (Homo sapiens) (protein)
chain: MSRSLDSARSFLERLEARGGREGAVLAGEFSDIQACSAAWKADGVCSTVAGSRPENVRKNRYKDVLPYDQTRVILSLLQEEGHSDYINGNFIRGVDGSLAYIATQGPLPHTLLDFWRLVWEFGVKVILMACREIENGRKRCERYWAQEQEPLQTGLFCITLIKEKWLNEDIMLRTLKVTFQKESRSVYQLQYMSWPDRGVPSSPDHMLAMVEEARRLQGSGPEPLCVHCSAGCGRTGVLCTVDYVRQLLLTQMIPPDFSLFDVVLKMRKQRPAAVQTEEQYRFLYHTVAQMFCSTLQNASPHYQNIKENCAPLYDDALFLRTPQALLAIPRPPGGVLRSISVPGSPGHAMADTYAVVQKRGAPAGAGSGTQTGTGTGTGARSAEEAPLYSKVTPRAQRPGAHAEDARGTLPGRVPADQSPAGSGAYEDVAGGAQTGGLGFNLRIGRPKGPRDPPAEWTRV
B3: DUSP14 (Homo sapiens) (protein)
chain: MSSRGHSTLPRTLMAPRMISEGDIGGIAQITSSLFLGRGSVASNRHLLQARGITCIVNATIEIPNFNWPQFEYVKVPLADMPHAPIGLYFDTVADKIHSVSRKHGATLVHCAAGVSRSATLCIAYLMKFHNVCLLEAYNWVKARRPVIRPNVGFWRQLIDYERQLFGKSTVKMVQTPYGIVPDVYEKESRHLMPYWGI
B4: PTPN14 (Homo sapiens) (protein)
chain: MPFGLKLRRTRRYNVLSKNCFVTRIRLLDSNVIECTLSVESTGQECLEAVAQRLELRETHYFGLWFLSKSQQARWVELEKPLKKHLDKFANEPLLFFGVMFYVPNVSWLQQEATRYQYYLQVKKDVLEGRLRCTLDQVIRLAGLAVQADFGDYNQFDSQDFLREYVLFPMDLALEEAVLEELTQKVAQEHKAHSGILPAEAELMYINEVERLDGFGQEIFPVKDNHGNCVHLGIFFMGIFVRNRIGRQAVIYRWNDMGNITHNKSTILVELINKEETALFHTDDIENAKYISRLFATRHKFYKQNKICTEQSNSPPPIRRQPTWSRSSLPRQQPYILPPVHVQCGEHYSETHTSQDSIFHGNEEALYCNSHNSLDLNYLNGTVTNGSVCSVHSVNSLNCSQSFIQASPVSSNLSIPGSDIMRADYIPSHRHSAIIVPSYRPTPDYETVMRQMKRGILHTDSQSQSLRNLNIINTHAYNQPEDLVYSQPEMRERHPYTVPYGPQGVYSNKLVSPSDQRNPKNNVVPSKPGASAISHTVSTPELANMQLQGSHNYSTAHMLKNYLFRPPPPYPRPRPATSTPDLASHRHKYVSGSSPDLVTRKVQLSVKTFQEDSSPVVHQSLQEVSEPLTATKHHGTVNKRHSLEVMNSMVRGMEAMTLKSLHLPMARRNTLREQGPPEEGSGSHEVPQLPQYHHKKTFSDATMLIHSSESEEEEEEAPESVPQIPMLREKMEYSAQLQAALARIPNKPPPEYPGPRKSVSNGALRQDQASLPPAMARARVLRHGPAKAISMSRTDPPAVNGASLGPSISEPDLTSVKERVKKEPVKERPVSEMFSLEDSIIEREMMIRNLEKQKMAGLEAQKRPLMLAALNGLSVARVSGREENRVDATRVPMDERFRTLKKKLEEGMVFTEYEQIPKKKANGIFSTAALPENAERSRIREVVPYEENRVELIPTKENNTGYINASHIKVVVGGAEWHYIATQGPLPHTCHDFWQMVWEQGVNVIAMVTAEEEGGRTKSHRYWPKLGSKHSSATYGKFKVTTKFRTDSVCYATTGLKVKHLLSGQERTVWHLQYTDWPDHGCPEDVQGFLSYLEEIQSVRRHTNSMLEGTKNRHPPIVVHCSAGVGRTGVLILSELMIYCLEHNEKVEVPMMLRLLREQRMFMIQTIAQYKFVYQVLIQFLQNSRLI
B5: DUSP15 (Homo sapiens) (protein)
chain: MTEGVLPGLYLGNFIDAKDLDQLGRNKITHIISIHESPQPLLQDITYLRIPVADTPEVPIKKHFKECINFIHCCRLNGGNCLVHCFAGISRSTTIVTAYVMTVTGLGWRDVLEAIKATRPIANPNPGFRQQLEEFGWASSQKGARHRTSKTSGAQCPPMTSATCLLAARVALLSAALVREATGRTAQRCRLSPRAAAERLLGPPPHVAAGWSPDPKYQICLCFGEEDPGPTQHPKEQLIMADVQVQLRPGSSSCTLSASTERPDGSSTPGNPDGITHLQCSCLHPKRAASSSCTR
B6: DUSP3 (Homo sapiens) (protein)
chain: MSGSFELSVQDLNDLLSDGSGCYSLPSQPCNEVTPRIYVGNASVAQDIPKLQKLGITHVLNAAEGRSFMHVNTNANFYKDSGITYLGIKANDTQEFNLSAYFERAADFIDQALAQKNGRVLVHCREGYSRSPTLVIAYLMMRQKMDVKSALSIVRQNREIGPNDGFLAQLCQLNDRLAKEGKLKP
B7: PTPN21 (Homo sapiens) (protein)
chain: MPLPFGLKLKRTRRYTVSSKSCLVARIQLLNNEFVEFTLSVESTGQESLEAVAQRLELREVTYFSLWYYNKQNQRRWVDLEKPLKKQLDKYALEPTVYFGVVFYVPSVSQLQQEITRYQYYLQLKKDILEGSIPCTLEQAIQLAGLAVQADFGDFDQYESQDFLQKFALFPVGWLQDEKVLEEATQKVALLHQKYRGLTAPDAEMLYMQEVERMDGYGEESYPAKDSQGSDISIGACLEGIFVKHKNGRHPVVFRWHDIANMSHNKSFFALELANKEETIQFQTEDMETAKYIWRLCVARHKFYRLNQCNLQTQTVTVNPIRRRSSSRMSLPKPQPYVMPPPPQLHYNGHYTEPYASSQDNLFVPNQNGYYCHSQTSLDRAQIDLNGRIRNGSVYSAHSTNSLNNPQPYLQPSPMSSNPSITGSDVMRPDYLPSHRHSAVIPPSYRPTPDYETVMKQLNRGLVHAERQSHSLRNLNIGSSYAYSRPAALVYSQPEIREHAQLPSPAAAHCPFSLSYSFHSPSPYPYPAERRPVVGAVSVPELTNAQLQAQDYPSPNIMRTQVYRPPPPYPPPRPANSTPDLSRHLYISSSNPDLITRRVHHSVQTFQEDSLPVAHSLQEVSEPLTAARHAQLHKRNSIEVAGLSHGLEGLRLKERTLSASAAEVAPRAVSVGSQPSVFTERTQREGPEEAEGLRYGHKKSLSDATMLIHSSEEEEDEDFEEESGARAPPARAREPRPGLAQDPPGCPRVLLAGPLHILEPKAHVPDAEKRMMDSSPVRTTAEAQRPWRDGLLMPSMSESDLTTSGRYRARRDSLKKRPVSDLLSGKKNIVEGLPPLGGMKKTRVDAKKIGPLKLAALNGLSLSRVPLPDEGKEVATRATNDERCKILEQRLEQGMVFTEYERILKKRLVDGECSTARLPENAERNRFQDVLPYDDVRVELVPTKENNTGYINASHIKVSVSGIEWDYIATQGPLQNTCQDFWQMVWEQGIAIIAMVTAEEEGGREKSFRYWPRLGSRHNTVTYGRFKITTRFRTDSGCYATTGLKMKHLLTGQERTVWHLQYTDWPEHGCPEDLKGFLSYLEEIQSVRRHTNSTSDPQSPNPPLLVHCSAGVGRTGVVILSEIMIACLEHNEVLDIPRVLDMLRQQRMMLVQTLCQYTFVYRVLIQFLKSSRLI
B8: DUSP18 (Homo sapiens) (protein)
chain: MTAPSCAFPVQFRQPSVSGLSQITKSLYISNGVAANNKLMLSSNQITMVINVSVEVVNTLYEDIQYMQVPVADSPNSRLCDFFDPIADHIHSVEMKQGRTLLHCAAGVSRSAALCLAYLMKYHAMSLLDAHTWTKSCRPIIRPNSGFWEQLIHYEFQLFGKNTVHMVSSPVGMIPDIYEKEVRLMIPL
B9: PTPN12 (Homo sapiens) (protein)
chain: MEQVEILRKFIQRVQAMKSPDHNGEDNFARDFMRLRRLSTKYRTEKIYPTATGEKEENVKKNRYKDILPFDHSRVKLTLKTPSQDSDYINANFIKGVYGPKAYVATQGPLANTVIDFWRMIWEYNVVIIVMACREFEMGRKKCERYWPLYGEDPITFAPFKISCEDEQARTDYFIRTLLLEFQNESRRLYQFHYVNWPDHDVPSSFDSILDMISLMRKYQEHEDVPICIHCSAGCGRTGAICAIDYTWNLLKAGKIPEEFNVFNLIQEMRTQRHSAVQTKEQYELVHRAIAQLFEKQLQLYEIHGAQKIADGVNEINTENMVSSIEPEKQDSPPPKPPRTRSCLVEGDAKEEILQPPEPHPVPPILTPSPPSAFPTVTTVWQDNDRYHPKPVLHMVSSEQHSADLNRNYSKSTELPGKNESTIEQIDKKLERNLSFEIKKVPLQEGPKSFDGNTLLNRGHAIKIKSASPCIADKISKPQELSSDLNVGDTSQNSCVDCSVTQSNKVSVTPPEESQNSDTPPRPDRLPLDEKGHVTWSFHGPENAIPIPDLSEGNSSDINYQTRKTVSLTPSPTTQVETPDLVDHDNTSPLFRTPLSFTNPLHSDDSDSDERNSDGAVTQNKTNISTASATVSAATSTESISTRKVLPMSIARHNIAGTTHSGAEKDVDVSEDSPPPLPERTPESFVLASEHNTPVRSEWSELQSQERSEQKKSEGLITSENEKCDHPAGGIHYEMCIECPPTFSDKREQISENPTEATDIGFGNRCGKPKGPRDPPSEWT
B10: DUSP9 (Homo sapiens) (protein)
chain: MEGLGRSCLWLRRELSPPRPRLLLLDCRSRELYESARIGGALSVALPALLLRRLRRGSLSVRALLPGPPLQPPPPAPVLLYDQGGGRRRRGEAEAEAEEWEAESVLGTLLQKLREEGYLAYYLQGGFSRFQAECPHLCETSLAGRAGSSMAPVPGPVPVVGLGSLCLGSDCSDAESEADRDSMSCGLDSEGATPPPVGLRASFPVQILPNLYLGSARDSANLESLAKLGIRYILNVTPNLPNFFEKNGDFHYKQIPISDHWSQNLSRFFPEAIEFIDEALSQNCGVLVHCLAGVSRSVTVTVAYLMQKLHLSLNDAYDLVKRKKSNISPNFNFMGQLLDFERSLRLEERHSQEQGSGGQASAASNPPSFFTTPTSDGAFELAPT

Substrate in the data set: Cc1cc(=O)oc2c(F)c(OP(=O)(O)O)c(F)cc12
Nature of the data set: purified protein, by the assay type. Also on record: DiFMUP hydrolysis by purified PTPs, fluorescence Ex355/Em460, initial rates over 10 min; Michaelis-Menten and Lineweaver-Burk Km. How it is done: The enzymatic activity of each PTP was evaluated using 6,8-difluoro-4-methylumbelliferyl phosphate (DiFMUP) as the surrogate substrate. To reach within the range of the initial rate (v0) during the measurement for 10 min, the pH and concentration of each PTP were optimized and are listed in Table S3. To determine the Km values, each PTP with optimized concentration was added to the reaction buffer (20 mM Bis-Tris at pH 6.0 or Tris at pH 7.0 and 8.0, 150 mM NaCl, 2.5 mM dithiothreitol (DTT), 0.01% Triton X-100) containing various concentrations of DiFMUP to obtain a final volume of 100 μL in a 96-well plate. Fluorescence intensities were measured once every minute for a complete 10 min duration using a Victor™ X4 Multilabel Plate Reader (Perkin Elmer, Waltham, MA, USA) at excitation/emission = 355 nm/460 nm. The initial rates of the reaction were determined using a previously described procedure for calculating the amount of product formation. To screen a library of 1033 natural products (Chengdu Biopurify Phytochemicals Ltd., Chengdu, China) against 20 PTPs, each PTP with an optimized concentration was added to the reaction buffer with an optimized pH containing DiFMUP (2 × Km for each PTP) after adding each compound (20 μM). […] The IC50 values were estimated using a sigmoid plot in GraphPad Prism 5 software (GraphPad Software Inc., San Diego, CA, USA). The Hill coefficient (nH), the degree of cooperativity, was calculated according to a previously published method. To determine the inhibition constant (Ki) and identify the inhibition mode of EG, various concentrations of EG (2.5, 5, 10, and 20 μM) were assayed with various concentrations of DiFMUP (260, 130, 65, and 32.5 μM). Kinetic parameters were obtained using Dixon plots for Ki and Lineweaver-Burk plots for the inhibition mode.
For the protein B1, the Km worked out at 13.0 µM.

On to B2, for which the Km is 5.5 µM.

Regarding B3, the Km was found to be 55.0 µM.

Regarding B4, the Km was 423.7 µM.

As to B5, the Km is 9.1 µM.

Regarding B6, the Km was determined as 100.0 µM.

Turning to B7, the Km came out at 46.7 µM.

On to B8, for which the Km came out at 29.0 µM.

Consider B9, for which the Km was 75.8 µM.

As for B10, the Michaelis constant (Km) came to 35.0 µM.
